Assay results as given in patent US20240216536.

How the values were obtained:
[1] = molecular target: T1, His-S5A substrate (E6AP Ubiquitin Ligase Kit-S5a Substrate, Boston Biochem #K-230), P55036
T1 chain: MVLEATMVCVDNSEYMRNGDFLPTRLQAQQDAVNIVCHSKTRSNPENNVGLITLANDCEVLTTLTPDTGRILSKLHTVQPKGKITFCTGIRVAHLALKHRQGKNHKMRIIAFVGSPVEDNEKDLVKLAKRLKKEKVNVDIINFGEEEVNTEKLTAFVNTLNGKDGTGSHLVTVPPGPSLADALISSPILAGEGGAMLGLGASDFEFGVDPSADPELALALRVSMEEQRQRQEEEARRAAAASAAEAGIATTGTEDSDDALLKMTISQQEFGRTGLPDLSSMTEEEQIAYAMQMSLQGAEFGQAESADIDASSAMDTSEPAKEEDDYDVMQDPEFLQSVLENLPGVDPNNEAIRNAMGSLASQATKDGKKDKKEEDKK

B1: rat UBE3A protein (endogenous, from wild type rat cerebrospinal fluid and hippocampal dialysate) (protein)
chain: MATACKRSSGESQSEDIEASRMKRAAAKHLIERYYHQLTEGCGNEACTNEFCASCPTFLRMDNNAAAIKALELYKINAKLCDPHPSKKGASSAYLENSKGASNNSEIKMNKKEEFKEVDYLTEEKVYEIYEFCREREDYSPLIRVIGRIFSSAEALVQSFRKVKQHTKEELKSLQEKDEDKDEDEKEKAACSAAAMEEDSEASSSRMGDSSQGDNNVQKLGPDDVTVDIDAIRRVYSSLLSDEKIETAFLNALVYLSPNVECDLTYHNVYTRDPNYLNLFIIVMENRNLHSPEYLEMALPLFCKAMSKLPLAAQGKLIRLWSKYSADQIRRMMETFQQLITYKVISNEFNSRNLVNDDDAIVAASKCLKMVYYANVVGGDVDTNHNEEDDEEPIPESSELTLQELLGEERRNKKGPRVDPLETEIGVKTLDCRKPLISFEEFINEPLNDVLEMDKDYTFFKVETENKFSFMTCPFILNAVTKNLGLYYDNRIRMYSERRITVLYSLVQGQQLNPYLRLKVRRDHIIDDALVRLEMIAMENPADLKKQLYVEFEGEQGVDEGGVSKEFFQLVVEEIFNPDIGMFTYDEATRLFWFNPSSFETEGQFTLIGIVLGLAIYNNCILDVHFPMVVYRKLMGKKGTFCDLGDSHPILYQSLKDLLEYEGNVEDDMMITFQISQTDLFGNPMMYDLKENGDKIPITNENRKEFVSLYSDYILNKSVEKQFKAFRRGFHMVTNESPLKYLFRPEEIELLICGSRNLDFQALEETTEYDGGYTRESVVIREFWEIVHSFTDEQKRLFLQFTTGTDRAPVGGLGKLKMIIAKNGPDTERLPTSHTCFNVLLLPEYSSKEKLKERLLKAITYAKGFGML
other
  ubiquitination assay western blot (self-ubiquitination of UBE3A): the UBE3A protein present in both the CSF and hippocampal dialysate were active in ubiquitinating both the S5A substrate and UBE3A
[1]
  ubiquitination assay western blot (S5A band shift over time): the UBE3A protein present in both the CSF and hippocampal dialysate were active in ubiquitinating both the S5A substrate and UBE3A
  ubiquitination assay western blot after immuno-depletion of UBE3A (S5A band intensity): With UBE3A protein immuno-precipitated, UBE3A protein was not detected and the S5A band intensity remained unchanged over time
